Measured values reported in US10538802B2, “Polypeptide substrate for the detection of von Williebrand factor cleaving protease ADAMTS13” (IMMUCOR GTI DIAGNOSTICS, INC., priority 2011, dated 2020).

Target: T1, ADAMTS13 (Homo sapiens, UniProt Q76LX8)
T1 construct: tissue Gen-Probe GTI Diagnostics (ATS-13 kit calibrators, controls and proficiency samples); George King Biomedical Inc. (FACT, A-FACT, B-FACT plasmas) ATS-13; host or cells: plasma
T1 sequence (Q76LX8 75-1427): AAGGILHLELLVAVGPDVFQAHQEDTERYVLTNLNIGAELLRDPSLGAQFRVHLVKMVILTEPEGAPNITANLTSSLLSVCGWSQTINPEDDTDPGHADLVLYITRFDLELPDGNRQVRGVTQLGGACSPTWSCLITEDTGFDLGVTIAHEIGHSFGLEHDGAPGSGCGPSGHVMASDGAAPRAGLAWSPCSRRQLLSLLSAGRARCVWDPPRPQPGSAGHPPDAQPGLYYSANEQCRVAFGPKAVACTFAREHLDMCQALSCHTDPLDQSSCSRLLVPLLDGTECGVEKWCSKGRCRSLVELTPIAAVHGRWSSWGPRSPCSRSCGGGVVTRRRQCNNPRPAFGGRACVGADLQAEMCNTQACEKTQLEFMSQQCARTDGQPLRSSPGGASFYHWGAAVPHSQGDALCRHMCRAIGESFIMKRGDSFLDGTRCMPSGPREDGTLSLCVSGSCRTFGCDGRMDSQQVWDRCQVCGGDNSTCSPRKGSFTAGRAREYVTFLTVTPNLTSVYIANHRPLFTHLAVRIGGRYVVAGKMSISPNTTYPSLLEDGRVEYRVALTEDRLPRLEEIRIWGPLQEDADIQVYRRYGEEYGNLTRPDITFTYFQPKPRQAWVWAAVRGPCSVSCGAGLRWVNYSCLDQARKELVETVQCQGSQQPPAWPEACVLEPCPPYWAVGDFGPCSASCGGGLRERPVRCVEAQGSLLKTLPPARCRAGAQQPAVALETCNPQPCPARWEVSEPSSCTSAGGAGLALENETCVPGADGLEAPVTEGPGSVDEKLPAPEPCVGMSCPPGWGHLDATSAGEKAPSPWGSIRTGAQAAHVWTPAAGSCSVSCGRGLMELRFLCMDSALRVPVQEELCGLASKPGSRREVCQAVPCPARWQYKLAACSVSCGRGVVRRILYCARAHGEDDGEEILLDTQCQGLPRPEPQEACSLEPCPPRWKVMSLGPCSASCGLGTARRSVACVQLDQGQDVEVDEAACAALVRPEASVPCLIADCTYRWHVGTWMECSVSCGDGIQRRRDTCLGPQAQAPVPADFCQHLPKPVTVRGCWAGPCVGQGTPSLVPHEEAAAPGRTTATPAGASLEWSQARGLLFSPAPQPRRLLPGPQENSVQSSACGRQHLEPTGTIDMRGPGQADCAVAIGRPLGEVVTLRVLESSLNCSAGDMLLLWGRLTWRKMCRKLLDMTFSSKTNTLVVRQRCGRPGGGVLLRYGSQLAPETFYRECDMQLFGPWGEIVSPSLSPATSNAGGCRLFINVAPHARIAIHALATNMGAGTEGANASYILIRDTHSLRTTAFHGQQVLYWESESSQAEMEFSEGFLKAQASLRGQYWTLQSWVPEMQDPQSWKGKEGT
Test: ADAMTS13 activity assay with fluorogenic (FRET) polypeptide substrate and diluted plasma samples
Format: biochemical
Method: The procedure in this example was performed substantially as described in Kokame, K., Y. Nobe, Y. Kokubo, A. Okayama, and T. Miyata. 2005. FRETS-VWF73, a first fluorogenic substrate for ADAMTS13 assay. Br. J. Haematol. 129:93-100, but using SEQ ID NO: 1 in place of the 73 amino acid substrate described therein. The FRETS-VWF73 substrate solution was dissolved in 25% dimethyl sulphoxide/water to prepare the 100 microM stock solution. The GTI FRET4 SEQ ID NO: 1 was dissolved in 100% DMSO. Both substrates were diluted to equal concentrations using ATS-13 substrate buffer (Gen-Probe GT1 Diagnostics, Inc., U.S.A., Cat#ATS-13).
Plasma samples were diluted according to the ATS-13 Direction Insert using ATS-13 specimen diluent (Gen-Probe GTI Diagnostics, Inc., U.S.A., Cat# ATS-13). The diluted plasma samples were mixed with the diluted substrate and the fluorescence was read at 0, 5, 10, 15, 20, 30, 45 minutes using a Biotek FLX800 at the appropriate excitation and emission wavelengths for each substrate.
The fluorophore-quencher pair in the SEQ ID NO: 1 polypeptide substrate is FAM-5/TQ 2^Tm (Ex 485±20; Em 528±20; AAT Bioquest, Inc. Sunnyvale, Calif. U.S.A.). The fluorophore and quencher pair of FRETS-VWF73 (Nma/Dnp) described in Kokame has been substituted with FAM-5 and TQ_2 respectively in GTI_FRET4 SEQ ID NO: 1. Furthermore, in the SEQ ID NO: 1 polypeptide the position of the fluorophore (FAM-5) and quencher (TQ_2) has been swapped relative to the position of the fluorophore and quencher of the FRETS-VWF73 construct. Therefore, for GTI_FRET4 SEQ ID NO: 1, attachment of the fluorophore (FAM-5) occurs by substituting asparagine with cystine at position 15. The quencher (TQ_2) was attached by substituting glutamine with lysine at position 4 (FIG. 2 and Table 4).
For this experiment, substrate concentration and fluorescence reader settings determined on the previous experiment are used. The specimens tested (listed in Table 3), include a panel of proficiency samples prepared for use with ATS-13 (Gen-Probe GTI Diagnostics, Inc., U.S.A., Cat# ATS-13) which included samples with normal or deficient ADAMTS13 activity levels. In addition, six Factor Assay ConTrol plasma were used (2 FACT, 2 A-FACT and 2 B-FACT, from George King Biomedical Inc., Kansas, USA). The assays for the SEQ ID NO: 1 substrate and for the prior art FRETS-VWF73 assay were performed generally as according to the procedure described in Example 1. Substrate is prepared according to the conditions used for initial testing of the substrate, which prepared the molar amount of SEQ ID NO: 1 polypeptide substrate used in the assay to be equivalent to the molar amount of FRETS-VWF73 used in the prior art. The […] assays were read at 0, 5, 10, 15, 20, 30, 45 minutes.
Testing of substrate for cleavability by ADAMTS13 is determined as is generally described in Example 1. […]

DREKAPNLVYMVTGCPASDEIKRLPGDIQVVPIEVIGWPNAPILIQDEETLPREAPDLVLQR [GTI_FRET4]
% Normal ADAMTS13 Values Calculated Using GTI_FRET4 Substrate (sample Calibrator D, incubation 15 Minutes): 58 % Normal | % Normal ADAMTS13 Values Calculated Using GTI_FRET4 Substrate (sample Calibrator D, incubation 30 Minutes): 59 % Normal | % Normal ADAMTS13 Values Calculated Using GTI_FRET4 Substrate (sample Calibrator D, incubation 45 Minutes): 59 % Normal | % Normal ADAMTS13 Values Calculated Using GTI_FRET4 Substrate (sample Calibrator D, incubation 60 Minutes): 60 % Normal | % Normal ADAMTS13 Values Calculated Using GTI_FRET4 Substrate (sample Calibrator D, incubation 75 Minutes): 61 % Normal | % Normal ADAMTS13 Values Calculated Using GTI_FRET4 Substrate (sample Calibrator D, incubation 90 Minutes): 62 % Normal | Increase in Fluorescence Values (X minute - 0 minute Reading) (sample Calibrator E, 15 min): 18,718 RFU | Increase in Fluorescence Values (X minute - 0 minute Reading) (sample Calibrator E, 30 min): 35,085 RFU | Increase in Fluorescence Values (X minute - 0 minute Reading) (sample Calibrator E, 45 min): 49,418 RFU | Increase in Fluorescence Values (X minute - 0 minute Reading) (sample Calibrator E, 60 min): 61,068 RFU | Increase in Fluorescence Values (X minute - 0 minute Reading) (sample Calibrator E, 75 min): 70,603 RFU | Increase in Fluorescence Values (X minute - 0 minute Reading) (sample Calibrator E, 90 min): 82,999 RFU | % Normal ADAMTS13 Values Calculated Using GTI_FRET4 Substrate (sample Calibrator E, incubation 15 Minutes): 101 % Normal | % Normal ADAMTS13 Values Calculated Using GTI_FRET4 Substrate (sample Calibrator E, incubation 30 Minutes): 101 % Normal | % Normal ADAMTS13 Values Calculated Using GTI_FRET4 Substrate (sample Calibrator E, incubation 45 Minutes): 100 % Normal | % Normal ADAMTS13 Values Calculated Using GTI_FRET4 Substrate (sample Calibrator E, incubation 60 Minutes): 100 % Normal | % Normal ADAMTS13 Values Calculated Using GTI_FRET4 Substrate (sample Calibrator E, incubation 75 Minutes): 98 % Normal | % Normal ADAMTS13 Values Calculated Using GTI_FRET4 Substrate (sample Calibrator E, incubation 90 Minutes): 98 % Normal | Increase in Fluorescence Values (X minute - 0 minute Reading) (sample MON110707, 15 min): 17,881 RFU | Increase in Fluorescence Values (X minute - 0 minute Reading) (sample MON110707, 30 min): 33,432 RFU | Increase in Fluorescence Values (X minute - 0 minute Reading) (sample MON110707, 45 min): 46,848 RFU | Increase in Fluorescence Values (X minute - 0 minute Reading) (sample MON110707, 60 min): 58,747 RFU | Increase in Fluorescence Values (X minute - 0 minute Reading) (sample MON110707, 75 min): 68,370 RFU | Increase in Fluorescence Values (X minute - 0 minute Reading) (sample MON110707, 90 min): 78,371 RFU | % Normal ADAMTS13 Values Calculated Using GTI_FRET4 Substrate (sample MON110707, incubation 15 Minutes): 97 % Normal | % Normal ADAMTS13 Values Calculated Using GTI_FRET4 Substrate (sample MON110707, incubation 30 Minutes): 96 % Normal | % Normal ADAMTS13 Values Calculated Using GTI_FRET4 Substrate (sample MON110707, incubation 45 Minutes): 95 % Normal | % Normal ADAMTS13 Values Calculated Using GTI_FRET4 Substrate (sample MON110707, incubation 60 Minutes): 96 % Normal | % Normal ADAMTS13 Values Calculated Using GTI_FRET4 Substrate (sample MON110707, incubation 75 Minutes): 95 % Normal | % Normal ADAMTS13 Values Calculated Using GTI_FRET4 Substrate (sample MON110707, incubation 90 Minutes): 92 % Normal | Increase in Fluorescence Values (X minute - 0 minute Reading) (sample Positive Control High, 15 min): 9,146 RFU | Increase in Fluorescence Values (X minute - 0 minute Reading) (sample Positive Control High, 30 min): 17,281 RFU | Increase in Fluorescence Values (X minute - 0 minute Reading) (sample Positive Control High, 45 min): 24,859 RFU | Increase in Fluorescence Values (X minute - 0 minute Reading) (sample Positive Control High, 60 min): 31,857 RFU | Increase in Fluorescence Values (X minute - 0 minute Reading) (sample Positive Control High, 75 min): 39,838 RFU | Increase in Fluorescence Values (X minute - 0 minute Reading) (sample Positive Control High, 90 min): 47,473 RFU | % Normal ADAMTS13 Values Calculated Using GTI_FRET4 Substrate (sample Positive Control High, incubation 15 Minutes): 48 % Normal | % Normal ADAMTS13 Values Calculated Using GTI_FRET4 Substrate (sample Positive Control High, incubation 30 Minutes): 49 % Normal | % Normal ADAMTS13 Values Calculated Using GTI_FRET4 Substrate (sample Positive Control High, incubation 45 Minutes): 50 % Normal
